Measurements from paper PMC6393540, “A dual role in regulation and toxicity for the disordered N-terminus of the toxin GraT”.
Positions count from the first letter of the chain named.

What was measured:
[1] = biological target: untagged antitoxin GraA co-expressed with His-tagged GraT (Pseudomonas putida); experiment: crystal structure; crystal of the co-expressed and co-purified hisGraT2A2 complex, 2.2 Å, data at 100 K
[2] = biological target: N-terminally His-tagged antitoxin GraA (Pseudomonas putida); experiment: crystal structure; crystal of hisGraA2, 1.96 Å, data at 100 K
[3] = biological target: N-terminally His-tagged antitoxin GraA (Pseudomonas putida); experiment: crystal structure; crystal of hisGraA2 with the 33 bp graTA operator DNA, 3.8 Å, data at 100 K
[4] = biological target: N-terminally His-tagged antitoxin GraA (Pseudomonas putida); experiment: native MS; GraA2 (20 μM dimer) mixed with operator DNA duplex at 1:1, 2:1 and 4:1, 40 mM ammonium acetate pH 7, nano-electrospray
[5] = biological target: T1, GraA (antitoxin; His-GraA2) (Pseudomonas putida (PaW85?)) (UniProt Q88MI6); experiment: ITC; conditions: ITC: 50 mM Tris pH 8.0, 250 mM NaCl, 2 mM β-mercaptoethanol (TCEP in purification for ITC), 25 °C; EMSA: 5 µM DNA, 30 min at room temperature, 6% native PAGE …
T1 sequence: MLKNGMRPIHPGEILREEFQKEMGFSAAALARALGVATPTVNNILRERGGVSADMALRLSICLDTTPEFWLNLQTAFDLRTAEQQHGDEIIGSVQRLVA

[6] = biological target: T2, GraT (toxin) in GraT2A2 complex;GraA (untagged) in GraT2A2 complex (Pseudomonas putida;Pseudomonas putida, UniProt Q88MI5;Q88MI6 1-92;1-99, |); experiment: ITC; macroscopic; ITC: 50 mM Tris pH 8.0, 250 mM NaCl, 2 mM β-mercaptoethanol (TCEP in purification for ITC), 25 °C; EMSA: 5 µM DNA, 30 min at room temperature, 6% native PAGE in TBE on ice; conditions: protein: recombinant;recombinant; tags: N-terminal His6;none; chain copies: 2;2
T2 sequence 1: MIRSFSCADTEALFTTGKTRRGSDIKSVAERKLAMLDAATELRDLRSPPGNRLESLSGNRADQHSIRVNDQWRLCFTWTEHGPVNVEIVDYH
T2 sequence 2: T1 sequence

[7] = biological target: T3, GraA (antitoxin; His-GraA2) (Pseudomonas putida, UniProt Q88MI6 1-99); experiment: ITC; macroscopic, 2 dimers per DNA; text also gives 3.1e13; ITC: 50 mM Tris pH 8.0, 250 mM NaCl, 2 mM β-mercaptoethanol (TCEP in purification for ITC), 25 °C; EMSA: 5 µM DNA, 30 min at room temperature, 6% native PAGE in TBE on ice; conditions: protein: recombinant; tags: N-terminal His6; chain copies: 4
T3 sequence: T1 sequence

[8] = biological target: T3, GraA (antitoxin; His-GraA2); experiment: ITC; macroscopic; ITC: 50 mM Tris pH 8.0, 250 mM NaCl, 2 mM β-mercaptoethanol (TCEP in purification for ITC), 25 °C; EMSA: 5 µM DNA, 30 min at room temperature, 6% native PAGE in TBE on ice; conditions: protein: recombinant; tags: N-terminal His6; chain copies: 4
[9] = biological target: T3, GraA (antitoxin; His-GraA2); experiment: ITC; N.D., binding too weak; ITC: 50 mM Tris pH 8.0, 250 mM NaCl, 2 mM β-mercaptoethanol (TCEP in purification for ITC), 25 °C; EMSA: 5 µM DNA, 30 min at room temperature, 6% native PAGE in TBE on ice; conditions: protein: recombinant; tags: N-terminal His6; chain copies: 4

untagged antitoxin GraA co-expressed with His-tagged GraT (natural protein)
stoichiometry N [1]: 2

N-terminally His-tagged antitoxin GraA (natural protein)
stoichiometry N [2]: 2
stoichiometry N [3]: 2
stoichiometry N [4]: 2

AAATTAACGAATAACGTTATTCGTTAATTT (double strand) [Left side mirrored]
Ka [5]: 5.2e+12 M^-2

AGCTGAATGCTTAACGTTAAGCATTCAGCT (double strand) [Right side mirrored]
Ka [5]: 3.5e+12 M^-2

B1: graTA operator wild type 33 bp (dsDNA)
DNA 1: AAATTAACGAATAACGTTAAGCATTCAGCTCAT
DNA 2: ATGAGCTGAATGCTTAACGTTATTCGTTAATTT
Ka [6]: < 1e+07 M^-2
Ka [7]: 3e+13 M^-2

B2: Variant 1 (dsDNA)
DNA 1: AAATTAACGAATAACGGGCCGCATTCAGCT
DNA 2: AGCTGAATGCGGCCCGTTATTCGTTAATTT
Ka [8]: 2.1e+09 M^-2

B3: Central palindrome (dsDNA)
DNA 1: GAATAACGTTAAG
DNA 2: CTTAACGTTATTC
binding result [9]: no binding

B4: Upstream half (dsDNA)
DNA 1: AAATTAACGAATAACGTTAAG
DNA 2: CTTAACGTTATTCGTTAATTT
binding result [9]: no binding

B5: Downstream half (dsDNA)
DNA 1: AATAACGTTAAGCATTCAGCT
DNA 2: AGCTGAATGCTTAACGTTATT
binding result [9]: no binding

B6: Variant 2 (dsDNA)
DNA 1: AAATTAACGAAGCCCGTTAAGCCGGCAGCT
DNA 2: AGCTGCCGGCTTAACGGGCTTCGTTAATTT
Ka [8]: 4.7e+11 M^-2

B7: Variant 3 (dsDNA)
DNA 1: AAATTAACGAATAGTGTTAAGCATTCAGCT
DNA 2: AGCTGAATGCTTAACACTATTCGTTAATTT
Ka [8]: 3.9e+11 M^-2

B8: Variant 4 (dsDNA)
DNA 1: AAAGGCACGAATAACGTTAAGCATTCAGCT
DNA 2: AGCTGAATGCTTAACGTTATTCGTGCCTTT
Ka [8]: 4.3e+13 M^-2

B9: Variant 5 (dsDNA)
DNA 1: AAATTAACGCCGAACGTTAAGCATTCAGC
DNA 2: GCTGAATGCTTAACGTTCGGCGTTAATTT
Ka [8]: 7.1e+12 M^-2

B10: Variant 6 (dsDNA)
DNA 1: B6 DNA 1 with G12T, C13A, C14A
DNA 2: B6 DNA 2 with G17T, G18T, C19A
Ka [8]: 1.5e+13 M^-2
